The series can be described thus: protein stability index of a GFP-peptide fusion (GPS, HEK-293T) (PSI 1-6); higher = more stable.
Setting [1] is: treatment: DMSO, c terminus: a fixed tail appended.
Where [2] appears, read: treatment: MLN4924 1 uM, 8 h, c terminus: a fixed tail appended.

± gives the standard deviation.
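Note: 24-mer peptide tiles fused after GFP, lentivirally expressed, FACS-sorted into six equal bins by GFP/DsRed ratio, decoded by Illumina sequencing, PSI is the read-weighted mean bin number.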

For SGSESDHTTRSSLRGPRERAPSER [DVL3], the protein stability index by setting is: under setting [1], 5.33 ± 0.32; under setting [2], 5.39 ± 0.24.

LNPHIHLMGDESACIAYIRITQYL [CAMK2A] yielded a protein stability index under setting [1] of 2.8 ± 0.44 and a protein stability index under setting [2] of 2.71 ± 0.51.

As for NPPAQPAPNAWQVIKGVLFRIFII [CLPTM1], the protein stability index by setting is: under setting [1], 1.9 ± 0.18; under setting [2], 2.09 ± 0.15.

For the sequence RNVRERIAKNLVEKGILTTEKQNF [GOLPH3L], the protein stability index amounted to 3.73 ± 0.22 under setting [1] and 3.82 ± 0.2 under setting [2].

For the sequence MVLSRPCHPDDQFTTSILRHWCMK [INTS3], the protein stability index by setting is: under setting [1], 2.21 ± 0.18; under setting [2], 2.26 ± 0.24.

For YQGGPPRPPMGMRPPVMSQGGRY [ZNF207], the protein stability index runs as follows: (treatment: DMSO, c terminus: native) 2.56 ± 0.27; (treatment: MLN4924 1 uM, 8 h, c terminus: native) 2.84 ± 0.3.

In the case of QASAAPAAPLPERNSLSAIFNNVM [SLC29A1], the protein stability index runs as follows: under setting [1], 3.55 ± 0.094; under setting [2], 3.5 ± 0.14.

For HTGEKPYKCLECGKAFSQNSGLIN [ZNF24], the protein stability index by setting is: under setting [1], 2.68 ± 0.19; under setting [2], 2.88 ± 0.21.

As for QRAWVRALNEQACRNGSSIQIAFE [C2CD2L], the protein stability index reads like this: under setting [1], 2.46 ± 0.34; under setting [2], 2.69 ± 0.16.

Turning to KHAGKDPVRDECEERNRFTETREE [FAM9B], the protein stability index by setting is: under setting [1], 5.54 ± 0.2; under setting [2], 5.49 ± 0.2.

For the sequence KVSYLKQKGLGGAMVWALDLDDFA [CHIT1], the protein stability index was found to be 1.85 ± 0.49 under setting [1] and 2.36 ± 0.3 under setting [2].

The sequence QCCQTEIIELRRTVNALEIELQAQ [KRT36] showed a protein stability index under setting [1] of 2.95 ± 0.49 and a protein stability index under setting [2] of 2.76 ± 0.4.

Turning to ACSAWLCPGLRLPGSLAGRRAGPA [AUH], the protein stability index was 2.2 ± 0.31 under setting [1] and 2.04 ± 0.9 under setting [2].

For VLPPRQPSALVPSVTEYRLDGHTI [MYBL2], the protein stability index was 3.35 ± 0.35 under setting [1] and 3.41 ± 0.24 under setting [2].

In the case of RTPLMKAARAGHVCTVQFLISKGA [ANKRD17], the protein stability index runs as follows: under setting [1], 2.27 ± 0.37; under setting [2], 2.46 ± 0.33.

EQEKEAQHKDQTAALPLAAEETAN [MAP2]: the protein stability index is 5.66 ± 0.12 under setting [1] and 5.5 ± 0.4 under setting [2].

FRRGPAPQDQAGPGGAPRVASRNL [CLPTM1]: the protein stability index was determined as 4.63 ± 0.17 under setting [1] and 4.25 ± 0.3 under setting [2].

Consider TGTALRFRVLCTAPAKYTVFDAEG [MOSPD3], for which the protein stability index runs as follows: under setting [1], 2.49 ± 0.95; under setting [2], 2.54 ± 0.41.

Regarding SAEEVRFPVSVTQQSPAAVSMETY [C2CD2L], the protein stability index is 4.52 ± 0.33 under setting [1] and 4.71 ± 0.14 under setting [2].

Turning to PEKRTQYFDPLRNEYFFDRNRPSF [KCNA4], the protein stability index was 2.74 ± 0.25 under setting [1] and 3.03 ± 0.13 under setting [2].

In the case of IIEYRGKFMLREQFEANGYFFKRP [KMT2E], the protein stability index under setting [1] is 2.31 ± 0.63 and the protein stability index under setting [2] amounted to 2.37 ± 0.36.

For GRARFTTYEVRMRTNLPIFKLKES [SNX12], the protein stability index came out at 2.27 ± 0.11 under setting [1] and 2.17 ± 0.22 under setting [2].

In the case of FANLIKEFVIIDCRYPYEYEGGHI [CDC25A], the protein stability index was found to be 2.98 ± 0.51 under setting [1] and 2.76 ± 1.1 under setting [2].

As for ITHSTVGSKGEKDLGASSLHVNGE [EHMT1], the protein stability index by setting is: under setting [1], 4.9 ± 0.2; under setting [2], 5.03 ± 0.24.

Take AWLNYPCFKNWDGSPVSSWILLAE [OAS1]: the protein stability index by setting is: under setting [1], 2.58 ± 0.34; under setting [2], 2.3 ± 0.23.

For the sequence MCVAQVLTAHLLPPRQALGSLCSP [YPEL3], the protein stability index came to 2.8 ± 0.93 under setting [1] and 2.8 ± 0.35 under setting [2].

Turning to AGVLTIALPVPVIVSNFNYFYHRE [KCNA4], the protein stability index was found to be 2.6 ± 0.21 under setting [1] and 2.84 ± 0.79 under setting [2].

As to KKIFAQLDSIIDDRVILSSSTSCL [CRYL1], the protein stability index turned out to be 2.35 ± 0.15 under setting [1] and 2.58 ± 0.3 under setting [2].

Take QPSKSHKKVLKKMLKFLAKGEVPK [ATE1]: the protein stability index reads like this: under setting [1], 2.13 ± 0.36; under setting [2], 2.26 ± 0.58.

IFYGSGIFNYMRLGSTKLSDKDKA [OR3A1]: the protein stability index is 1.93 ± 0.23 under setting [1] and 2.12 ± 0.19 under setting [2].

Regarding DDDDNLPQLKKESELPFVPNYLAN [ANKRD40], the protein stability index is 4.77 ± 0.12 under setting [1] and 4.84 ± 0.076 under setting [2].

Take GHGIVGTIVKARDKLYHPECFMCS [PDLIM4]: the protein stability index is, setting by setting: under setting [1], 2.45 ± 0.069; under setting [2], 2.67 ± 0.21.

For the sequence SAAQTDPTTGYRRLLRFSSQIHNN [LOXL2], the protein stability index under setting [1] came to 3.1 ± 0.2 and the protein stability index under setting [2] turned out to be 3.23 ± 0.17.

Sequence DGQYLGVAFRGLKGKKLYPVVSAV [SPSB4] yielded a protein stability index under setting [1] of 2.08 ± 0.38 and a protein stability index under setting [2] of 2.51 ± 0.49.

On to SNEWKTVVGGAMFFIGFTALVIMW [COX4I1], for which the protein stability index reads like this: under setting [1], 3.09 ± 0.14; under setting [2], 3.06 ± 0.27.

As for RCKEENTIILQQLLPLRTKVAKLL [NLN], the protein stability index runs as follows: under setting [1], 2.47 ± 0.25; under setting [2], 2.21 ± 0.17.

ETAPLTLESLPTDPLLLILSFLDY [FBXO3]: the protein stability index reads like this: under setting [1], 2.36 ± 0.19; under setting [2], 2.28 ± 0.19.

As to QLGYLLFGTQVENFSTFIKCIFTQ [PKD2L1], the protein stability index is 2.83 ± 0.41 under setting [1] and 3.27 ± 0.55 under setting [2].

As to DLSVEERSFVEKHRWPSNMYLKQL [RHOBTB3], the protein stability index is, setting by setting: under setting [1], 3.01 ± 0.24; under setting [2], 2.98 ± 0.18.

On to RLSRRMASQHSYPLNRFSSVPLDP [CBY2], for which the protein stability index is, setting by setting: under setting [1], 3.22 ± 0.27; under setting [2], 3.45 ± 0.22.

Consider EEPNGQIQGYRVYYTMDPTQHVNN [PTPRD], for which the protein stability index came out at 3.18 ± 0.19 under setting [1] and 3.17 ± 0.34 under setting [2].

Turning to SPPEASPGPPAAPRARRRLGSGPD [PWWP2B], the protein stability index was 5.22 ± 0.39 under setting [1] and 5.47 ± 0.31 under setting [2].

EGFQRCDVARQLGKNNEFSRLVAG [PSD2] returned a protein stability index under setting [1] of 3.22 ± 0.25 and a protein stability index under setting [2] of 3.58 ± 0.23.

Take SHGVRNKCLQLLGNLGSLEKSVTK [INTS4]: the protein stability index runs as follows: under setting [1], 3.23 ± 0.27; under setting [2], 3.28 ± 0.22.

Regarding VEAVKNELRRQAPPPPPPSRGGPP [WASL], the protein stability index was found to be 4.91 ± 0.29 under setting [1] and 4.92 ± 0.078 under setting [2].

Take SAPATAKENAAAPSPVRAPAPSPA [PALM]: the protein stability index under setting [1] turned out to be 5.18 ± 0.21 and the protein stability index under setting [2] was 5.34 ± 0.17.

Consider CLRCWDQRTIMKPLEYQFKSQIMS [TLE6], for which the protein stability index is, setting by setting: under setting [1], 2.14 ± 0.27; under setting [2], 2.47 ± 0.48.

Regarding SEMLDITMKESLTTREIRRQEAIY [NET1], the protein stability index under setting [1] came to 3.75 ± 0.18 and the protein stability index under setting [2] stood at 3.91 ± 0.33.

Turning to ESIQQTARSIAEQAHELAYDPNYM [PPTC7], the protein stability index by setting is: under setting [1], 4.52 ± 0.19; under setting [2], 4.3 ± 0.37.

The sequence LFQIDVYDFMNSAFSPIVILTERV [MIA2] gave a protein stability index under setting [1] of 2.75 ± 0.73 and a protein stability index under setting [2] of 3.06 ± 0.91.

As for EGQHPAQLRSDVCTPGGTTIYGLH [PYCR3], the protein stability index is, setting by setting: under setting [1], 3.8 ± 0.35; under setting [2], 3.92 ± 0.39.

Take VFGTSLTARVIIPLLKDEGFAVKA [GFOD1]: the protein stability index under setting [1] worked out at 2.7 ± 0.57 and the protein stability index under setting [2] came to 2.34 ± 0.25.

Sequence KKKVGNYYTTPIYRFRMKCHLCVN [YJU2B] yielded a protein stability index under setting [1] of 2.21 ± 0.33 and a protein stability index under setting [2] of 2.19 ± 0.3.

PQLKKESELPFVPNYLANPAFPFI [ANKRD40]: the protein stability index under setting [1] worked out at 2.82 ± 0.34 and the protein stability index under setting [2] was 2.87 ± 0.085.

In turn, KSCYNGRFQLLYVACGMVHLLIPE [DNAAF3] had a protein stability index under setting [1] of 3.37 ± 0.63 and a protein stability index under setting [2] of 2.77 ± 0.36.

Turning to LELLVNNGADVNIQSKDGKSPLHM [ANKRD44], the protein stability index came out at 4.06 ± 0.23 under setting [1] and 4.01 ± 0.3 under setting [2].

With NPTSAPGSRLAEFGAAGVNRLSIG [RSAD1], the protein stability index is 3.87 ± 0.072 under setting [1] and 3.64 ± 0.28 under setting [2].

Take MTEWKHQRITKQLEKWMQKNVEEN [GLT8D2]: the protein stability index stood at 3.85 ± 0.21 under setting [1] and 3.97 ± 0.41 under setting [2].

Take MTEKQQEEAEWESINVLLMMHGLK [CEP70]: the protein stability index under setting [1] is 2.62 ± 0.27 and the protein stability index under setting [2] was 2.73 ± 0.22.

Take QLSIERGKVLQNKQAEICQLEEKL [CCDC89]: the protein stability index runs as follows: under setting [1], 4.58 ± 0.4; under setting [2], 4.45 ± 0.37.

Consider SETPQETYRKVMNWKETLVFPPEV [STK38L], for which the protein stability index runs as follows: under setting [1], 3.61 ± 0.53; under setting [2], 3.7 ± 0.3.

DALPGQSKRLAVPCKLEKMRILAH [TLE6] gave a protein stability index under setting [1] of 2.39 ± 0.18 and a protein stability index under setting [2] of 2.4 ± 0.24.

On to RLGPLSAEGTTGLAPAGQTSEESR [TNXB], for which the protein stability index turned out to be 5.3 ± 0.36 under setting [1] and 5.41 ± 0.2 under setting [2].

Turning to KDSHDPLPSWAELLRPKYRAPQGC [PBXIP1], the protein stability index was found to be 3.01 ± 0.37 under setting [1] and 3.19 ± 0.2 under setting [2].

For the sequence KLKALHVDSAEYSCLKAIVLFTSD [NR2F2], the protein stability index stood at 2.45 ± 0.36 under setting [1] and 2.27 ± 0.15 under setting [2].

As to CLKVGMRREAVQRGRMPPTQPTHG [NR2F2], the protein stability index is, setting by setting: under setting [1], 3.59 ± 0.27; under setting [2], 3.71 ± 0.32.

As for YDFIVTKARGKSGPLFNFDVHDDV [FAM50A], the protein stability index reads like this: under setting [1], 2.65 ± 0.23; under setting [2], 2.78 ± 0.45.

As for QMSGEPLDKLNFEAINFCRGLGSQ [ACSBG2], the protein stability index reads like this: under setting [1], 3.51 ± 0.49; under setting [2], 2.89 ± 0.39.

DSHYGTKGLKKVVHETPAASKTVF [BTBD1] showed a protein stability index under setting [1] of 4.05 ± 0.095 and a protein stability index under setting [2] of 4.14 ± 0.28.

Take DSNMPHFQTLQAIVSHFQKLFDVP [CEP70]: the protein stability index runs as follows: under setting [1], 2.38 ± 0.1; under setting [2], 2.47 ± 0.22.

ILLDGSEYTCDVEKRSRGQVLFDK [EPB41L3]: the protein stability index came out at 2.86 ± 0.55 under setting [1] and 2.94 ± 0.61 under setting [2].

PKGLDDESKDYLSLYLLLVSCPKS [SPOPL]: the protein stability index is, setting by setting: under setting [1], 2.34 ± 0.38; under setting [2], 2.95 ± 0.69.

Source of the values: the supplement of paper PMC10567573.
